This data set deals with the molecule itself. The data set is described as follows: AUC; sedimentation velocity, 5 uM SlmA without SBS, working buffer (50 mM Tris-HCl pH 7.5, 5 mM MgCl2) with 100, 300 or 500 mM KCl, 48,000 rpm, 20 C, absorbance at 230 nm, c(s) in SEDFIT.

B1: SlmA (natural protein, E. coli, UniProt P0C093 1-198, looked up)
chain: MAEKQTAKRNRREEILQSLALMLESSDGSQRITTAKLAASVGVSEAALYRHFPSKTRMFDSLIEFIEDSLITRINLILKDEKDTTARLRLIVLLLLGFGERNPGLTRILTGHALMFEQDRLQGRINQLFERIEAQLRQVLREKRMREGEGYTTDETLLASQILAFCEGMLSRFVRSEFKYRPTDDFDARWPLIAAQLQ
modifications: Alexa Fluor 488 on amino groups (0.3-0.6 mol dye per mol protein), only in the tracer fraction (1 uM of 5 uM) of the microdroplet experiments; unlabelled in the sedimentation velocity experiments
notes: SlmA, nucleoid occlusion protein of Escherichia coli; also called nucleoid occlusion protein SlmA; nucleoid occlusion factor SlmA
In the case of B1, the “stoichiometry N” value worked out at 2.

For orientation: stoichiometry N means the number of molecules, sites or subunits per partner or assembly.
